Laboratory results as given in PMC5216731.

Molecular target: GST-obscurin-PH (human) (UniProt Q5VST9)
Assay: SPR; Biacore 3000; GST-obscurin-PH immobilised on a CM5 chip, HIS-PI3K-p85/SH3 as analyte at 8-250 nM, 20 ul/min, 180 s association, 180 s dissociation; 1:1 Langmuir model

UniProt Q5VST9, sequence (Q5VST9 5895-6004): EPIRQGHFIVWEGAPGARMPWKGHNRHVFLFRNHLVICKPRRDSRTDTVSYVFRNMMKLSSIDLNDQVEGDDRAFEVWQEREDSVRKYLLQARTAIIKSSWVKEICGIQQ

Kd: 50 nM
Substance: HIS-PI3K/p85-SH3 (from UniProt O00459 4-80) (domain or fragment)
